T1: STAT2-core (UniProt P52630 133-679)
T1 construct: source: purified
T1 sequence: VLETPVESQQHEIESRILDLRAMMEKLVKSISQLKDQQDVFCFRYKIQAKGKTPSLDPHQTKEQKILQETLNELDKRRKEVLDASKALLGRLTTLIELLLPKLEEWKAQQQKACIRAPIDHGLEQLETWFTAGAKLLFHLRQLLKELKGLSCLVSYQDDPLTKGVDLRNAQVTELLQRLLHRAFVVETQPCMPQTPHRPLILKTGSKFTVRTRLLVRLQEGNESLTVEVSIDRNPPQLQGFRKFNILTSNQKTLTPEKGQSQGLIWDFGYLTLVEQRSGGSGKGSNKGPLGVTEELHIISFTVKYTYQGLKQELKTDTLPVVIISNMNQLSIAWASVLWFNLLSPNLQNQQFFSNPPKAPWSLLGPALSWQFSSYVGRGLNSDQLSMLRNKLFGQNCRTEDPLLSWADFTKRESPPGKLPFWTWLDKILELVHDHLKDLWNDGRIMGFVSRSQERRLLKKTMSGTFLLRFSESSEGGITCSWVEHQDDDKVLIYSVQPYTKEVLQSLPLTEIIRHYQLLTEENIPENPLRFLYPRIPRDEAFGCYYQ

B1: MeV-V_(CT221-299) (measles virus V protein, residues 221-299, containing the C-terminal domain) (domain or fragment)
chain: GPASTSETPIKKGHRREIGLIWNGDRVFIDRWCNPMCSKVTLGTIRARCTCGECPRVCEQCRTDTGVDTRIWYHNLPEIPE
notes: additional Gly and Pro before Ala221, left after HRV-3C protease digestion; 15N- or 13C,15N-labelled for the NMR experiments, unlabelled for ITC; Monomer by SEC; also called MeV-VCT construct; MeV-VCTD; source: E. coli BL21 star (DE3), purified (Glutathione Sepharose 4B, 3C protease elution, HisTrap, HIC, SEC); not shown: GST, N-terminal, cleaved

What was measured:
[1] = molecular target: STAT2 core (Homo sapiens) (UniProt P52630); settings: cited from earlier work
[2] = molecular target: T1, STAT2-core; test: ITC; 250 µM MeV-V_(CT221-299) injected (20 x 2.5 µL) into 35 µM STAT2-core; 20°C; 10 mM HEPES pH 7.4, 150 mM NaCl, 1 mM TCEP; 1:1 binding model; three independent experiments; settings: both partners purified

| Molecule | Kd [1] | Kd [2] | dH [2] | stoichiometry N [2] |
| --- | --- | --- | --- | --- |
| MeV-V (from UniProt P0C774) | 180 nM |  |  |  |
| B1 |  | 212 nM | -12.5 kcal/mol | 1.17 |
